From US20250188151A1, “C-JUN ANTAGONIST PEPTIDES” (The University of Bath, priority 2022, published 2025) come the findings set out here.

Bridge positions count the residues as written; N and C are the ends. Peptide text beside a SMILES is read from it.

Series [1] addresses cJun bZIP (Homo sapiens, UniProt P05412, S292Y). Description: CD spectra and thermal denaturation of peptide/cJun heterodimers. The following applies: peptide (5 μM)/c-Jun (5 μM) heterodimer; Table 6.
Series [2] has as its target T1, cJun bZIP (human, UniProt P05412 252-308, limits assumed).
T1 chain: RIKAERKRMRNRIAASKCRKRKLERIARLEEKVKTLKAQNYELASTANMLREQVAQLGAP
Description: cell-based or functional assay.

The target in series [3] is T1, cJun bZIP. Description: CD thermal denaturation, peptide 5 µM and c-Jun 5 µM.

On to “Ac-LVVEEDVLEEEIEQLEERNYALRKEIEDLQKQLEDL-NH2 [Peptide 9]”, for which, in series [1], the “Tm (° C.)” value worked out at 62.1 ± 1.4 °C.

Take `CC[C@H](C)[C@H](NC(=O)[C@H](CCC(=O)O)NC(=O)[C@H](CCCCN)NC(=O)[C@H](CCCNC(=N)N)NC(=O)[C@H](CC(C)C)NC(=O)[C@H](C)NC(=O)[C@H](Cc1ccc(O)cc1)NC(=O)[C@H](CC(N)=O)NC(=O)[C@H](CCCNC(=N)N)NC(=O)[C@@H]1CC(=O)NCCCC[C@H](NC(=O)[C@@H](NC(=O)[C@H](CCC(=O)O)NC(=O)[C@H](CCC(=O)O)NC(=O)[C@H](CCC(=O)O)NC(=O)[C@H](CC(C)C)NC(=O)[C@@H](NC(=O)[C@H](CC(=O)O)NC(=O)[C@H](CCC(=O)O)NC(=O)[C@H](CCC(=O)O)NC(=O)[C@@H](NC(=O)[C@@H](NC(=O)[C@H](CC(C)C)NC(=O)[C@H](CCC(=O)O)NC(=O)[C@H](CCC(=O)O)NC(=O)[C@H](C)NC(=O)[C@H](CCC(=O)O)NC(C)=O)C(C)C)C(C)C)C(C)C)[C@@H](C)CC)C(=O)N[C@@H](CCC(N)=O)C(=O)N[C@@H](CC(C)C)C(=O)N[C@@H](CCC(=O)O)C(=O)N1)C(=O)N[C@@H](CCC(=O)O)C(=O)N[C@@H](CC(=O)O)C(=O)N[C@@H](CC(C)C)C(=O)N[C@@H](CCC(N)=O)C(=O)N[C@@H](CCCCN)C(=O)N[C@@H](CCC(N)=O)C(N)=O` [Peptide 19] (Ac-EAEELVVEEDVLEEEIKQLEDRNYALRKEIEDLQKQ-NH2; lactam 17-21 (inferred)): the “Tm (° C.)” value in series [1] was determined as 60.9 ± 3.6 °C.

Regarding `CC[C@H](C)[C@H](NC(=O)[C@H](CCC(=O)O)NC(=O)[C@@H]1CC(=O)NCCCC[C@H](NC(=O)[C@H](CC(N)=O)NC(=O)[C@H](CCCCN)NC(=O)[C@H](CCC(=O)O)NC(=O)[C@H](CCC(=O)O)NC(=O)[C@H](CC(C)C)NC(=O)[C@H](CCC(N)=O)NC(=O)[C@H](CCC(=O)O)NC(=O)[C@@H](NC(=O)[C@H](CCC(=O)O)NC(=O)[C@H](CCC(=O)O)NC(=O)[C@H](CCC(=O)O)NC(=O)[C@H](CC(C)C)NC(=O)[C@@H](NC(=O)[C@H](CC(=O)O)NC(=O)[C@H](CCC(=O)O)NC(=O)[C@H](CCC(=O)O)NC(=O)[C@@H](NC(=O)[C@@H](NC(=O)[C@H](CC(C)C)NC(=O)[C@H](CCC(=O)O)NC(=O)[C@H](CCC(=O)O)NC(=O)[C@H](C)NC(=O)[C@H](CCC(=O)O)NC(C)=O)C(C)C)C(C)C)C(C)C)[C@@H](C)CC)C(=O)N[C@@H](C)C(=O)N[C@@H](CC(C)C)C(=O)N[C@@H](CCCCN)C(=O)N1)C(=O)N[C@@H](CCC(=O)O)C(=O)N[C@@H](CC(=O)O)C(=O)N[C@@H](CC(C)C)C(=O)N[C@@H](CCC(N)=O)C(=O)N[C@@H](CCCCN)C(=O)N[C@@H](CCC(N)=O)C(=O)N[C@@H](Cc1ccc(O)cc1)C(N)=O` [Peptide 21] (Ac-EAEELVVEEDVLEEEIEQLEEKNKALKDEIEDLQKQY-NH2; lactam 24-28), in series [1], the “Tm (° C.)” value was determined as 58.9 ± 1.0 °C.

Consider “Ac-EAEELVVEEDVLEEEIEQLEERNYALRKEIEDLQ-NH2 [Peptide 28]”, for which the “Tm (° C.)” value in series [1] worked out at 53.8 ± 5.3 °C.

As to “Ac-EAEELVVEEKVLEDEIEQLEERNYALRKEIEDLQKQ-NH2 [Peptide 16]”, the “Tm (° C.)” value in series [1] came to 54.9 ± 1.2 °C.

Regarding “Ac-EAEELVVEEDVLEEEIKQLEDRNYALRKEIEDLQKQ-NH2 [Peptide 18]”, the “Tm (° C.)” value in series [1] stood at 55.5 ± 1.7 °C.

For “Ac-EAEELVVEEDVLEEEIEQLEERNYALRKEIKDLQDQ-NH2 [Peptide 22]”, the “Tm (° C.)” value in series [1] worked out at 55.6 ± 1.2 °C.

In the case of “Ac-KEAEDLVVEEDVLEEEIEQLEERNYALRKEIKDLQDQ-NH2 [Peptide 12]”, the “Tm (° C.)” value in series [1] came out at 56.5 ± 1.6 °C.

Turning to “Ac-EDVLEEEIEQLEERNYALRKEIEDLQKQLEKLY-NH2 [Peptide 7]”, in series [1], the “Tm (° C.)” value came to 64.3 ± 1.3 °C.

In the case of “Ac-EAEELVVEEDVLEEEIEQLEEKNKALKDEIEDLQKQY-NH2 [Peptide 20]”, the “Tm (° C.)” value in series [1] turned out to be 56.2 ± 1.3 °C.

On to “Ac-EAKELVDEEDVLEEEIEQLEERNYALRKEIEDLQKQ-NH2 [Peptide 14]”, for which the “Tm (° C.)” value in series [1] came out at 57.5 ± 1.1 °C.

B1: HingeW variant peptide 12 (peptide)
peptide: Ac-KEAEDLVVEEDVLEEEIEQLEERNYALRKEIKDLQDQ-NH2
notes: Synthetic, NΔ19 CΔ7; also called linear form of 12/13
B1: the “IC50 CD” value in series [2] was 115 µM. Moreover, the “Tm (° C.) of peptide-c-Jun heterodimer” value in series [3] stood at 56.5 ° C.

B2: HingeW peptide variant 22 (peptide)
peptide: Ac-EAEELVVEEDVLEEEIEQLEERNYALRKEIKDLQDQ-NH2
notes: Synthetic, NΔ20 CΔ7; also called linear form of 22/23
As for B2, in series [2], the “IC50 CD” value amounted to 101 µM. In addition, the “Tm (° C.) of peptide-c-Jun heterodimer” value in series [3] is 55.6 ° C.

B3: HingeW variant peptide 14 (peptide)
peptide: Ac-EAKELVDEEDVLEEEIEQLEERNYALRKEIEDLQKQ-NH2
notes: Synthetic, NΔ20 CΔ7; also called linear form of 14/15
Take B3: the “IC50 CD” value in series [2] turned out to be 100 µM. Moreover, the “Tm (° C.) of peptide-c-Jun heterodimer” value in series [3] was found to be 57.5 ° C.

B4: HingeW variant peptide 18 (peptide)
peptide: Ac-EAEELVVEEDVLEEEIKQLEDRNYALRKEIEDLQKQ-NH2
notes: Synthetic, NΔ20 CΔ7; also called linear form of 18/19
As to B4, the “IC50 CD” value in series [2] was 98.9 µM. Further, the “Tm (° C.) of peptide-c-Jun heterodimer” value in series [3] was 55.5 ° C.

B5: HingeW variant peptide 19 (peptide)
peptide: Ac-EAEELVVEEDVLEEEIKQLEDRNYALRKEIEDLQKQ-NH2
modifications: lactam 17-21
SMILES: CC[C@H](C)[C@H](NC(=O)[C@H](CCC(=O)O)NC(=O)[C@H](CCCCN)NC(=O)[C@H](CCCNC(=N)N)NC(=O)[C@H](CC(C)C)NC(=O)[C@H](C)NC(=O)[C@H](Cc1ccc(O)cc1)NC(=O)[C@H](CC(N)=O)NC(=O)[C@H](CCCNC(=N)N)NC(=O)[C@@H]1CC(=O)NCCCC[C@H](NC(=O)[C@@H](NC(=O)[C@H](CCC(=O)O)NC(=O)[C@H](CCC(=O)O)NC(=O)[C@H](CCC(=O)O)NC(=O)[C@H](CC(C)C)NC(=O)[C@@H](NC(=O)[C@H](CC(=O)O)NC(=O)[C@H](CCC(=O)O)NC(=O)[C@H](CCC(=O)O)NC(=O)[C@@H](NC(=O)[C@@H](NC(=O)[C@H](CC(C)C)NC(=O)[C@H](CCC(=O)O)NC(=O)[C@H](CCC(=O)O)NC(=O)[C@H](C)NC(=O)[C@H](CCC(=O)O)NC(C)=O)C(C)C)C(C)C)C(C)C)[C@@H](C)CC)C(=O)N[C@@H](CCC(N)=O)C(=O)N[C@@H](CC(C)C)C(=O)N[C@@H](CCC(=O)O)C(=O)N1)C(=O)N[C@@H](CCC(=O)O)C(=O)N[C@@H](CC(=O)O)C(=O)N[C@@H](CC(C)C)C(=O)N[C@@H](CCC(N)=O)C(=O)N[C@@H](CCCCN)C(=O)N[C@@H](CCC(N)=O)C(N)=O
notes: Synthetic, NΔ20 CΔ7; also called cyclised form of 18/19
B5: the “IC50 CD” value in series [2] came out at 94.4 µM. The “Tm (° C.) of peptide-c-Jun heterodimer” value in series [3] came out at 60.9 ° C.

B6: HingeW variant peptide 16 (peptide)
peptide: Ac-EAEELVVEEKVLEDEIEQLEERNYALRKEIEDLQKQ-NH2
notes: Synthetic, NΔ20 CΔ7; also called linear form of 16/17
In the case of B6, in series [2], the “IC50 CD” value was determined as 114 µM. Besides, the “Tm (° C.) of peptide-c-Jun heterodimer” value in series [3] worked out at 54.9 ° C.

B7: HingeW variant peptide 7 (peptide)
peptide: Ac-LVVEEDVLEEEIEQLEEKNKALKDEIEDLQKQLEKLY-NH2
modifications: also: table prints a different, shorter sequence for 7/8
notes: also called linear form of 7/8
For the molecule B7, the “IC50 CD” value in series [2] is 83.9 µM. The “Tm (° C.) of peptide-c-Jun heterodimer” value in series [3] came to 64.3 ° C.

B8: HingeW variant peptide 26 (peptide)
peptide: Ac-EAEELVVEEDVLEEEIEQLEEKNKALKDEIEDLY-NH2
As for B8, the “IC50 CD” value in series [2] was 1560 µM.

B9: HingeW variant peptide 9 (peptide)
peptide: Ac-LVVEEDVLEEEIEQLEERNYALRKEIEDLQKQLEDL-NH2
notes: Synthetic, NΔ24 CΔ3; also called linear form of 9/10
For the molecule B9, the “IC50 CD” value in series [2] was 94.6 µM. For the same molecule, the “Tm (° C.) of peptide-c-Jun heterodimer” value in series [3] came out at 62.1 ° C.
